The values below come from PMC11117068 (2024).

Assay [1] addresses T1, complement C3b (UniProt P01024 749-1663; P01024 749-1663). The assay can be described thus: SPR. In general terms: In SPR one partner is held on a chip, and binding of the other changes the refractive index at the surface.
Assay [2] deals with T1, complement C3b. Briefly: SPR. The source holds these as a separate data set.

T1 sequence (P01024 23-667, chain 1 of 2): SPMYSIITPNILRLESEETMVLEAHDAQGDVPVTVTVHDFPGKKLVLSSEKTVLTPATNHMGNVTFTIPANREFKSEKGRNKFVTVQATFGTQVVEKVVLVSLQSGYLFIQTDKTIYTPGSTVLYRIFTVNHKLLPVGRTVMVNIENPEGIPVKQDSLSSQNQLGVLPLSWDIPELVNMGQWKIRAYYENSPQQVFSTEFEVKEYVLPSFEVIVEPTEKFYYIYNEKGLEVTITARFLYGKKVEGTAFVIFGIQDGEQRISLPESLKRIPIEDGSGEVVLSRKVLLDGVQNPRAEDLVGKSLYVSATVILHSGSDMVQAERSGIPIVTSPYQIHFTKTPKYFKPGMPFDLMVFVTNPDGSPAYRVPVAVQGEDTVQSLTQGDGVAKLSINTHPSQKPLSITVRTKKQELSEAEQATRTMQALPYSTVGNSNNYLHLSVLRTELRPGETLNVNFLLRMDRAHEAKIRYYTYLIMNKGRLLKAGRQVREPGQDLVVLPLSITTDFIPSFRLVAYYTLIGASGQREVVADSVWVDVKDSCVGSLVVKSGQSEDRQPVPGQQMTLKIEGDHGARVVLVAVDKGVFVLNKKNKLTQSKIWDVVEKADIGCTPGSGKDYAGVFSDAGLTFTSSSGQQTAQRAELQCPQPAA
T1 sequence (P01024 749-1663, chain 2 of 2): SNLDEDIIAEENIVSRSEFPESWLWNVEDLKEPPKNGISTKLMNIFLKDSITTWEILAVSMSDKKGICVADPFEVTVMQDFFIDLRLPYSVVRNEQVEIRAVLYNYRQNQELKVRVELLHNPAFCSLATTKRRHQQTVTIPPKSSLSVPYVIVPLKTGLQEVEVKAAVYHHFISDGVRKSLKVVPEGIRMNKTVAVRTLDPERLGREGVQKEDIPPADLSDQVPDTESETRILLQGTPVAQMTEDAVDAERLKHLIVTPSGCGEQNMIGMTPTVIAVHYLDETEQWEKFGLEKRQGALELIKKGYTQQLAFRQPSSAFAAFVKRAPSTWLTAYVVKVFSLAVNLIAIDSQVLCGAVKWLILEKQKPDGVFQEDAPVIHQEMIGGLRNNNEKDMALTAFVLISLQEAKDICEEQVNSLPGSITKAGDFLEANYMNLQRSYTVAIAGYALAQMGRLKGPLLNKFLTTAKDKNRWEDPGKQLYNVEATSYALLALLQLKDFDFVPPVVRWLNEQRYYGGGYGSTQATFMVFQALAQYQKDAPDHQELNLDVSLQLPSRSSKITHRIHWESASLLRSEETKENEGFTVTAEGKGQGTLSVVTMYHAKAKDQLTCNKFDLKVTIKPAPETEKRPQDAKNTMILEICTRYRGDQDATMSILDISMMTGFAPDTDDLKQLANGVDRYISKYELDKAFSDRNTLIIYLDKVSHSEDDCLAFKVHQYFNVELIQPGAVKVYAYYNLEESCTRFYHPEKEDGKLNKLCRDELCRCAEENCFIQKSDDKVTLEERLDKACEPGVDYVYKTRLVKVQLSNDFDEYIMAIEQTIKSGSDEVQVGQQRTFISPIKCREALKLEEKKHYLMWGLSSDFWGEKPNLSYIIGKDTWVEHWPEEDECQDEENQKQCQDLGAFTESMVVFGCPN

B1: serum-derived human factor H (sd-FH) (natural protein)
chain: EDCNELPPRRNTEILTGSWSDQTYPEGTQAIYKCRPGYRSLGNVIMVCRKGEWVALNPLRKCQKRPCGHPGDTPFGTFTLTGGNVFEYGVKAVYTCNEGYQLLGEINYRECDTDGWTNDIPICEVVKCLPVTAPENGKIVSSAMEPDREYHFGQAVRFVCNSGYKIEGDEEMHCSDDGFWSKEKPKCVEISCKSPDVINGSPISQKIIYKENERFQYKCNMGYEYSERGDAVCTESGWRPLPSCEEKSCDNPYIPNGDYSPLRIKHRTGDEITYQCRNGFYPATRGNTAKCTSTGWIPAPRCTLKPCDYPDIKHGGLYHENMRRPYFPVAVGKYYSYYCDEHFETPSGSYWDHIHCTQDGWSPAVPCLRKCYFPYLENGYNQNYGRKFVQGKSIDVACHPGYALPKAQTTVTCMENGWSPTPRCIRVKTCSKSSIDIENGFISESQYTYALKEKAKYQCKLGYVTADGETSGSITCGKDGWSAQPTCIKSCDIPVFMNARTKNDFTWFKLNDTLDYECHDGYESNTGSTTGSIVCGYNGWSDLPICYERECELPKIDVHLVPDRKKDQYKVGEVLKFSCKPGFTIVGPNSVQCYHFGLSPDLPICKEQVQSCGPPPELLNGNVKEKTKEEYGHSEVVEYYCNPRFLMKGPNKIQCVDGEWTTLPVCIVEESTCGDIPELEHGWAQLSSPPYYYGDSVEFNCSESFTMIGHRSITCIHGVWTQLPQCVAIDKLKKCKSSNLIILEEHLKNKKEFDHNSNIRYRCRGKEGWIHTVCINGRWDPEVNCSMAQIQLCPPPPQIPNSHNMTTTLNYRDGEKVSVLCQENYLIQEGEEITCKDGRWQSIPLCVEKIPCSQPPQIEHGTINSSRSSQESYAHGTKLSYTCEGGFRISEENETTCYMGKWSSPPQCEGLPCKSPPEISHGVVAHMSDSYQYGEEVTYKCFEGFGIDGPAIAKCLGEKWSHPPSCIKTDCLSLPSFENAIPMGEKKDVYKAGEQVTYTCATYYKMDGASNVTCINSRWTGRPTCRDTSCVNPPTVQNAYIVSRQMSKYPSGERVRYQCRSPYEMFGDEEVMCLNGNWTEPPQCKDSTGKCGPPPPIDNGDITSFPLSVYAPASSVEYQCQNLYQLEGNKRITCRNGQWSEPPKCLHPCVISREIMENYNIALRWTAKQKLYSRTGESVEFVCKRGYRLSSRSHTLRTTCWDGKLEYPTCAKR
modifications: native N-linked glycans, diantennary and a small number of triantennary sialylated glycans
What is called koff is a measure of how fast the partners let go of each other. Read a low koff as slow dissociation. Usually Kd stands for the equilibrium constant for the complex coming apart. Turning to B1, the off-rate constant (koff) in the assay with complement C3b [1] was 0.0233 s⁻¹. The molecule also returned a Kd in the assay with complement C3b [2] of 11.3 nM.
